Laboratory results as given in article PMC10132761.

B1: HIM-3 (wildtype, residues 2-291) (natural protein)
chain: ATKEQIVEHRESEIPIASQWKATFPVDLEIEKNSEMFALRYIKCASAFILDRRGILDEKCFKTRTIDKLLVTAFQSSVPAAKRVSSTFDGLRDAIQQGYLREFAIVFYKKPNEEDINEVFAFRFAYGDEGEIFVSLNNGIDTNESSQELLQAKFVDTDNTKQMFASTIKKLHRCIKKMEPLPQGSDASFRVSYTEKAPKDYTPEGYLLSPMFYTLNQDIRKASIGIVCGGHHKIQMLAASQYLKQDFDLDKTTTLNPNMSIMANQSKRKGRISRDSPYGLSQGITKKNKD
B2: HIM-3^R93Y (residues 2-291) (natural protein)
chain: ATKEQIVEHRESEIPIASQWKATFPVDLEIEKNSEMFALRYIKCASAFILDRRGILDEKCFKTRTIDKLLVTAFQSSVPAAKRVSSTFDGLYDAIQQGYLREFAIVFYKKPNEEDINEVFAFRFAYGDEGEIFVSLNNGIDTNESSQELLQAKFVDTDNTKQMFASTIKKLHRCIKKMEPLPQGSDASFRVSYTEKAPKDYTPEGYLLSPMFYTLNQDIRKASIGIVCGGHHKIQMLAASQYLKQDFDLDKTTTLNPNMSIMANQSKRKGRISRDSPYGLSQGITKKNKD

Target: peptide encoding HTP-3 closure motif #4 (C. elegans)
Assay: fluorescence polarisation; 50 nM N-terminal FITC-Ahx peptide plus indicated amounts of HIM-3 (WT or R93Y); 20 mM Tris pH 7.5, 300 mM NaCl, 10% glycerol, 1 mM DTT, 0.1% NP-40; 60 minutes at room temperature; triplicate; single-site binding model

Binder	Kd [nM]
B1	220
B2	690
